Patent US20240109974A1 (SHANDONG SIMCERE BIOPHARMACEUTICAL, published 2024)

How the values were obtained:
[1] = target: T1, human TNFR2 on the surface of CHO-TNFR2 cells (human, UniProt P20333 23-461); assay: flow cytometry on CHO-TNFR2 cells; EC50 against 001-WT
T1 construct: whole, on cells
T1 sequence (looked up): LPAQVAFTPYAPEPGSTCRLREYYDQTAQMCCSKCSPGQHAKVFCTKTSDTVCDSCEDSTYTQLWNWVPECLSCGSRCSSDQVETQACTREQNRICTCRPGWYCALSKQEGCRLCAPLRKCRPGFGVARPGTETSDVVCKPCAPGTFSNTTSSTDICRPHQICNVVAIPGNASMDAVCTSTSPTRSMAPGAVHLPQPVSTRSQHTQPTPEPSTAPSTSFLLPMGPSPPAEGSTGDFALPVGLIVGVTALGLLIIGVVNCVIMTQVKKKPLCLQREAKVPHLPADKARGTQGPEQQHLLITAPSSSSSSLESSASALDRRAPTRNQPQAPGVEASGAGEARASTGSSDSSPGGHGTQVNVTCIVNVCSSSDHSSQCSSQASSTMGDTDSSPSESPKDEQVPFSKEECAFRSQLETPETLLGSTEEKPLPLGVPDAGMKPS
Experimental: The transfected full-length plasmid of human TNFR2 was purchased from Sino Biological (Cat #HG10417-UT, NCBI Ref Seq: NM_001066.2). The experiment was conducted at a cell density within 80%. The cell medium was discarded; the cells were rinsed with PBS, and digested with 1 ml trypsin for 2 minutes; the digestion was stopped with a Ham's F12 complete medium containing 10% FBS, and then a cell suspension was made. The cell suspension was counted, and then an appropriate amount of cell suspension was centrifuged at 350×g; the supernatant was discarded; a corresponding volume of blocking solution (10% FBS+PBS) at a density of 1×10⁷ cells/ml was added to resuspend the cells, and the mixture was incubated at 4° C. for 30 minutes. After the incubation, the mixture was centrifuged at 350×g to remove the supernatant, and the cells were resuspended in a staining buffer (2% FBS+PBS) to a density of 2×10⁶ cells/ml, and spread onto a 96-well plate, with 50 μl of cell suspension added to each well for later use. The antibody was diluted with PBS for 10-fold gradient dilution from the highest concentration of 20 μg/m (twice the concentration); the diluted antibody was added to the well containing 50 μl of cell suspension, and placed on a microplate shaker for shaking at 500 rpm for 1 minute, so that the antibody was fully mixed with the cells; the mixture was incubated at 4° C. for 1 h. After the incubation, the cells were washed twice with the staining buffer, with 100 μl per well, and centrifuged at 350-g for 5 minutes, and the supernatant was discarded. The PE goat anti-Human IgG Fc antibody (ebioscience, Cat #12-4998-82) was diluted 250-fold with the staining buffer, with a volume of 100 μl per well added to the washed cell wells; the mixture was mixed evenly, and stained at 4° C. for 30 minutes. After the staining, similarly, the cells were washed twice with the staining buffer; finally, the cells were resuspended in 200 μl of staining buffer; signals were detected by a flow cytometer (Thermo Attune NxT). The stronger the signal, the stronger the binding ability of an antibody to TNFR2. The binding curve of an antibody was drawn with antibody concentration as the abscissa and corresponding mean fluorescence intensity (MFI) fold as the ordinate, and fitted with four parameters (GraphPad Prism9) to calculate the EC50 value.

[2] = target: T2, Human TNFR2-His (Sino 10417-H08H) (human, UniProt P20333 23-257); assay: ELISA, human TNFR2-His coated; EC50 against 001-WT
T2 construct: Bought protein; also called recombinant human TNFR2 protein; not shown: His tag
T2 sequence (looked up): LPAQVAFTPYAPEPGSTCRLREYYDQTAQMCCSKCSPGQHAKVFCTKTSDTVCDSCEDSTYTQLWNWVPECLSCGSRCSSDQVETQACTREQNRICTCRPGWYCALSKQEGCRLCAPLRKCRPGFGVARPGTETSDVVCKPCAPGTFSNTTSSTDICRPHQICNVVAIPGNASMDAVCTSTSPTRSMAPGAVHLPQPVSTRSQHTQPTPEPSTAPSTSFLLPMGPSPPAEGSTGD
Experimental: The test humanized antibody against TNFR2 (as described in Example 1, the antibody was comprised of variable regions linked to IgG-Fc; the WT chimeric antibody also adopted the IgG-Fc structure) was subjected to 3.33-fold gradient dilution, loaded with 100 μl/well, and incubated with shaking at room temperature for 1.5 hours. The plate was washed, and then a working solution of murine anti-human IgG Fc-HRP (diluted at 1:10000) was added, loaded with 100 μl/well, and incubated with shaking at room temperature for 1.0 hour. The plate was washed again, and then the substrate TMB of HRP was added to develop colour. A stop solution was added to stop the reaction, and then a microplate reader (MD 13) was used to read the absorbance value. The binding curve of an antibody was drawn with antibody concentration as the abscissa and corresponding OD value as the ordinate, and fitted with four parameters (GraphPad Prism9) to calculate the EC50 value. The smaller the EC50 value, the stronger the binding ability of an antibody to human/cynomolgus monkey TNFR2. The binding effect of a humanized antibody was normalized to its corresponding human-murine chimeric antibody WT (see SEQ ID NOs: 38-43 for the sequence). The higher the percentage value, the better the binding effect of the humanized antibody. The results of binding of an anti-TNFR2 antibody to a human TNFR2 protein are shown in FIG. 1 and Table 4, and the results of binding of an anti-TNFR2 antibody to cynomolgus monkey TNFR2 are shown in FIG. 2 and Table 4.

[3] = target: T3, human TNFR2 (Novoprotein, Cat #C830) (human, UniProt P20333 23-257, limits assumed); assay: competition ELISA, competitor human TNFα-Biotin; AUC against 001-WT
T3 construct: construct not described; also called human TNFR2 protein
T3 sequence (looked up): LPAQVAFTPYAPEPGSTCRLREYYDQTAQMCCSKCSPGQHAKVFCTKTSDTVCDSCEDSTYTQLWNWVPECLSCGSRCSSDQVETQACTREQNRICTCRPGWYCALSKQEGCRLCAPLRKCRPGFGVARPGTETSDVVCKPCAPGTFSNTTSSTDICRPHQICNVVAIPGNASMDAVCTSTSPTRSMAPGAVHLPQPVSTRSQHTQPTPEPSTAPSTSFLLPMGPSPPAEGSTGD
Experimental: 1 μg/ml human TNFR2 (Novoprotein, Cat #C830) was pre-coated with 100 μl/well […] in an ELISA plate. All the test TNFR2 antibodies were subjected to 2.5-fold gradient dilution from the highest concentration of 30 μg/ml; the diluted antibodies were mixed with 15 ng/ml human TNFα-Biotin (Acro Biosystem, Cat #TNA-H82E3) in equal volume, respectively; the resulting mixture was added to the ELISA plate at 100 μl/well, and incubated with shaking at room temperature for 2.0 hours. The plate was washed, and then a Streptavidin-HRP working solution (diluted at 1:10000) was added at 100 μl/well, and the mixture was incubated with shaking at room temperature for 40 minutes. The plate was washed again, and then the substrate TMB of HRP was added to develop colour. A stop solution was added to stop the reaction, and then a microplate reader (MD 13) was used to read the absorbance value. The inhibitory curve of an antibody was drawn with antibody concentration as the abscissa and corresponding OD value as the ordinate, and fitted with four parameters (GraphPad Prism9) to calculate the IC50 value. The smaller the IC50 value, the stronger the ability of an antibody to inhibit the binding of human TNFα to human TNFR2. The blocking effect of a humanized antibody was normalized to its corresponding human-murine chimeric antibody WT. The higher the percentage value, the better the inhibitory effect of the humanized antibody.

B1: 001-Hu5 (antibody, V domains shown)
VH: EVQLVESGGGLVQPGGSLRLSCAASGFAFSTYDLSWVRQAPGKGLEWVAYINNGGISTYYSDTVKGRFTISRDNAKNTLYLQMNSLRAEDTAVYYCVRGPFYGSANYFDYWGQGTLVTVSS
VL: DIQMTQSPSSLSASVGDRVTITCRTSESIYSNLPWYQQKPGKSPKLLVYDATKLAEGVPSRFSGSGSGTDYTLTISSLQPEDFATYYCQHFWVTPWTFGQGTKVEIK
notes: Humanized form of #001; also called VH1 + VL4
% Relative activity (WT antibody/test antibody) [1]: 123% | % Relative activity (WT antibody/test antibody) [2]: 100% | % Relative activity (WT antibody/test antibody) [3]: 98%

B2: 001-Hu3 (antibody, V domains shown)
VH: EVQLVESGGGLVQPGGSLRLSCAASGFAFSTYDLSWVRQAPGKGLEWVAYINNGGISTYYSDTVKGRFTISRDNAKNTLYLQMNSLRAEDTAVYYCVRGPFYGSANYFDYWGQGTLVTVSS
VL: DIQMTQSPSSLSASVGDRVTITCRTSESIYSNLPWYQQKPGKAPKLLIYDATKLAEGVPSRFSGSGSGTDYTLTISSLQPEDFATYYCQHFWVTPWTFGQGTKVEIK
notes: Humanized form of #001; also called VH1 + VL3
% Relative activity (WT antibody/test antibody) [1]: 101% | % Relative activity (WT antibody/test antibody) [2]: 101% | % Relative activity (WT antibody/test antibody) [3]: 99.4%

B3: 001-Hu1 (antibody, V domains shown)
VH: EVQLVESGGGLVQPGGSLRLSCAASGFAFSTYDLSWVRQAPGKGLEWVAYINNGGISTYYSDTVKGRFTISRDNAKNTLYLQMNSLRAEDTAVYYCVRGPFYGSANYFDYWGQGTLVTVSS
VL: DIQMTQSPSSLSASVGDRVTITCRTSESIYSNLPWYQQKPGKAPKLLLYDATKLAEGVPSRFSGSGSGTDYTLTISSLQPEDFATYYCQHFWVTPWTFGQGTKVEIK
notes: Humanized form of #001; also called VH1 + VL1
% Relative activity (WT antibody/test antibody) [1]: 78% | % Relative activity (WT antibody/test antibody) [2]: 104% | % Relative activity (WT antibody/test antibody) [3]: 98%

B4: 001-Hu2 (antibody, V domains shown)
VH: EVQLVESGGGLVQPGGSLRLSCAASGFAFSTYDLSWVRQAPGKGLEWVAYINNGGISTYYSDTVKGRFTISRDNAKNSLYLQMNSLRAEDTAVYYCVRGPFYGSANYFDYWGQGTLVTVSS
VL: DIQMTQSPSSLSASVGDRVTITCRTSESIYSNLPWYQQKPGKSPKLLIYDATKLAEGVPSRFSGSGSGTDFTLTISSLQPEDFATYYCQHFWVTPWTFGQGTKVEIK
notes: Humanized form of #001; also called VH2 + VL2
% Relative activity (WT antibody/test antibody) [1]: 48% | % Relative activity (WT antibody/test antibody) [2]: 102% | % Relative activity (WT antibody/test antibody) [3]: 97.1%

B5: 001-Hu4 (antibody, V domains shown)
VH: EVQLVESGGGLVQPGGSLRLSCAASGFAFSTYDLSWVRQAPGKGLEWVAYINNGGISTYYSDTVKGRFTISRDNAKNSLYLQMNSLRAEDTAVYYCVRGPFYGSANYFDYWGQGTLVTVSS
VL: DIQMTQSPSSLSASVGDRVTITCRTSESIYSNLPWYQQKPGKSPKLLVYDATKLAEGVPSRFSGSGSGTDYTLTISSLQPEDFATYYCQHFWVTPWTFGQGTKVEIK
notes: Humanized form of #001; also called VH2 + VL4
% Relative activity (WT antibody/test antibody) [1]: 129% | % Relative activity (WT antibody/test antibody) [2]: 109% | % Relative activity (WT antibody/test antibody) [3]: 101%
